A short description of this data set: soluble on expression in E. coli; label from the status in PepcDB or PDB records.
Take “MGSDKIHHHHHHMAENWKNCFEEELICPICLHVFVEPVQLPCKHNFCRGCIGEAWAKDSGLVRCPECNQAYNQKPGLEKNLKLTNIVEKFNALHVEKPPAALHCVFCRRGPPLPAQKVCLRCEAPCCQSHVQTHLQQPSTARGHLLVEADDVRAWSCPQHNAYRLYHCEAEQVAVCQYCCYYSGAHQGHSVCDVEIRRNEIRKMLMKQQDRLEEREQDIEDQLYKLESDKRLVEEKVNQLKEEVRLQYEKLHQLLDEDLRQTVEVLDKAQAKFCSENAAQALHLGERMQEAKKLLGSLQLLFDKTEDVSFMKNTKSVKILMDRTQTCTSSSLSPTKIGHLNSKLFLNEVAKKEKQLRKMLEGPFSTPVPFLQSVPLYPCGVSSSGAEKRKHSTAFPEASFLETSSGPVGGQYGAAGTASGEGQSGQPLGPCSSTQHLVALPGGAQPVHSSPVFPPSQYPNGSAAQQPMLPQYGGRKILVCSVDNCYCSSVANHGGHQPYPRSGHFPWTVPSQEYSHPLPPTPSVPQSLPSLAVRDWLDASQQPGHQDFYRVYGQPSTKHYVTS”: the “soluble on expression in E. coli” value was “not soluble”.
As for “MAHHHHHHMPRRFVAEYVTKHLCGVRVLESFAETSTATGVIGTHNGSFHCDEAMACGLLRCSQNFGQSNILRSRDPNALERCNIVVDVGSVYDEATLRFDHHQPSFHDTMKTPKAAYQTRLSSAGLVYKHFGREIIQGYVESALASPYRVKLLDATKWGTDKKKLSEQELDILFDIVYKNFVEHIDGIDNGVNAYGPAETEGEEGAVPVSSSSPSCVKKYNVSTTLSARIGNLMPWWNEEGNGKVENENAAFLQAMELATSEFFDSVHYHVFAWMPARGIVRAAFLEAMNVHPSGRIVVFKDCFCPWKEHLLELEEEHGKVGHVLYVLFADKKGWRVQAVPKEASGFENRKSLPWRGLRDEELSQASGIEGGIFVHVSGFIGGNKTYEGALQMAVKALTVVN”, the “soluble on expression in E. coli” value is “not soluble”.
Consider “MGSDKIHHHHHHMKFFDREKEIAEILHILNREPDDVYFIYGPINSGKTALINEIINNRLDKDKYVVFYFDLREIFISKYDDFIEVLFEEYEGNKKPVEIIKSLIKDVPSLCGIPAPKNTLEEILKKKTTKNVFRYITKVLMDIKKEGKQPILIIDELQKIGDMKINGFLIYELFNYFVSLTKHKHLCHVFCLSSDSLFIERVYNEAMLDGRAKYLLVDDFDKETALKFMDFLAKENNISLTNEDKELIYNYVGGKPKDIKYVVEESNFKDLKEVLDYLLNDEISKLDMFLEILDYSKPRVEVGNEVIEINKEDIIKALRLFKDKYEIPKKDIPTPVYVYLVKENILFLNPQKRILKPQSYLVWNAIKRLL”, for which the “soluble on expression in E. coli” value is recorded as “not soluble”.
The same measure for “MSLDHRLLSINTATVRRQGDLATIIEACARAQIRAISPWRDQVAHIGLPRAVEAVKATGLALSGYCRGGMFPADPARLPEVRDDNRRAVDEAEALGASCLVLVVGGLPQYARPGSAPSKDIGAARAMVEDGIGTLLEYARSAHMPLAIEPLHPMYAADRACVNTMGQALDICDRLDPERSGMLGVALDVFHVWWDPDLSAQIVRAGRDRLLAYHVCDWLVPMADMLNDRGMMGDGVIDLKAIRAQVEAQGYQGFAEVEIFSEHWWAKPMEEVLGTCISRHRSVVEGHHHHHH”: “not soluble”; for “MLPLPLIANGKGFIRALENDGALAVYAPLEGGYEGRYQRRLRANGYASISLSARGLGDVEAYLMQVHGVRPAHLGKKNIAQEGAVGPIYFAQPIAGYQLENLPAQSKGLVLWILEGYILSQTEIQDLISLTKRVPKLKVVLEMGGDRVFRWQPLLDCLQAALEHHHHHH”: “soluble”; for “QKFIARNRAPRVQIEYDVEIYGAERKIQLPFVMGVLADLAGKSNTPQPEVGERKFLDVDIDNFDERMKSVAPRAAFQVANTLTGAGHLNVDITFESIDDFSPATVARKVGALNEMLEARTQLANLLTYMDGKTGAEELIGQVLQNPALLGALAAAPKPA”: “not soluble”.
Regarding “MSLKARPTIAEVARRAGVSPATVSRVLNGTARVSPEKVRAVLQAVEELGYAPSPLAQGLATGRSYAVGILLSDFASPFFGPILEALTLELEATPYRPIAVPGHWSLVRELEALEFLKAHRVEALVLLGTALDGEALGELGIPVLAFGQRVEGPKAWSLCLDNQQAAYEATRYLIDRGHTRIVHISSHRGGMDVRDRLLGYRKAMREAGLEARVVYGDLEEEGGYRAAAEAFRRYPDTTAIFAANDQTAFGARLYLYEQGLRVPEDVSLVGFDDIALSAYQIPPLTTVRQPIQDIGIALGRALRAVLAGEVPTLPRLELRLVERASVREVREGHHHHHH”, the “soluble on expression in E. coli” value was “soluble”.

The values are drawn from the DeepSol protein solubility set.
